In patent publication US20250026813A1 (published 2025):

Molecular target: SARS-CoV-2 spike protein bearing furin mutation and truncation in retention sequence, on pseudoviral particles (SARS-CoV-2, UniProt P0DTC2 14-1255)
Test: cell-based or functional assay

| Binder | PV neutralization % (Ab 1 ug/mL) [%] | PV neutralisation IC50 [nM] |
| --- | --- | --- |
| YANG-1202 (antibody, V domains shown) VH: EMQLVESGGGLVQPGGSLRLSCAASGFTFSSFWMRWVRQAPGKGLEWVANIKQDGTEKYYVDSVKGRFTISRDNAKNSLYLQMNSLRAEDTAVYYCVRDRVGGDYYYYDMDVWGQGTTVTVSS VL: DIQMTQSPSSLSASVGDRVTITCRASQDISNYLAWFQQKPGKAPKSLIYAASSLQSGVPSKFSGSGSGTDFTLTISGLQPEDSATYYCQQYNSYPRTFGQGTKVEIK | 51.9 |  |
| YANG-1206 (antibody, V domains shown) VH: QVHLVESGGGMVQPGRSLRLSCAASGFTFSIYAMHWVRQAPGKGLEWVAVISYDGSNKYYADSVKGRFTISRDNSKNTLYLQMNSLRAEDTAVYYCAKVYGGSYWGGFDYWGQGTLVTVSS VL: QSVLTQPPSVSGAPGQRVTISCTGTSSNIGSIYDVHWYQQLPGTAPKLLIYGNSNRPSGVPDRFSGSKSGTSASLAITGLQAEDEADYYCQSYDTSLSGSWVFGGGTKLNVL | 45.9 |  |
| YANG-1203 (antibody, V domains shown) VH: EVRLVESGGALVQPGRSLRLSCAASGFIFDGYAMHWVRQVPGKGLEWVSGISWNSGNIGYADSVKGRFTISRDNAKNSLYLQMNSLRAEDTALYYCAKDIRPSGKYYYGMDVWGQGTTVTVSS VL: not shown | 41.4 |  |
| YANG-1115 (antibody, V domains shown) VH: EVQLVESGGGLVKPGGSLRLSCAASGFTFSSYSMNWVRQAPGKGLEWVSSISTGSSYIFYADSVKGRFTISRDNAKNSLYLQMNSLRAEDTAVYYCAKTGDLPFFDYWGQGTLVTVSS VL: QSALTQPASVSGSPGQSITISCTGTSSDVGRYNYVSWYQQHPGKAPKLMIYEVSNRPSGVSNRFSGSKSGNTASLTISGLQAEDEADYYCSSYTSSSTMVFGGGTKLSVL | 97.8 |  |
| YANG-1116 (antibody, V domains shown) VH: EVQLVESGGGLVKPGGSLRLSCEASGFNFRSYALNWVRQAPGKGLEWVSSISTGSSYIFYADSVKGRFTISRDNAKNSLSLQMNSLRAEDTAVYYCAKTGDLPFFDYWGQGTLVTVSS VL: QSALTQPASVSGSPGQSITISCTGTSSDVGRYNYVSWYQQHPGKAPKLMIYEVSNRPSGVSNRFSGSKSGNTASLTISGLQAEDEADYYCISYTSSSTMVFGGGTKLTVL | 99.2 |  |
| YANG-1117 (antibody, V domains shown) VH: EVQLVESGGGLVKPGGSLRLSCAASGFTFSSYSVNWVRQAPGKGLEWVSSISTGSSYIFYADSVKGRFTISRDNAKNSLYLQMNSLRAEDTAVYYCVKTGDLPFFDYWGQGTLVTVSS VL: QSALTQPASVSGSPGQSITISCTGTRSDVGRYNYVSWYQQHPGKAPKLMIYEVTNRPSGVSNRFSGSKSGNTASLTISGLQAEDEADYYCSSYTNNSTMVFGGGTKLTVL | 97.8 |  |
| YANG-1118 (antibody, V domains shown) VH: EVQLVESGGGLVKPGGSLRLSCAASGFTFSSYALNWVRQAPGKGLEWVSSISTGSSYIFYADSVKGRFTISRDNAKHSLSLQMNSLRAEDTAVYYCAKTGDLPFFDYWGQGTLVTVSS VL: QSALTQPASVSGSPGQSITISCTGTSSDVGRYNYVSWYQQHPGKAPKLMIYEVSNRPSGVSNRFSGSKSGNTASLTISGLQAEDEADYYCISYTSSSTMVFGGGTKLTVL | 99.3 | 0.25 |
| YANG-1201 (antibody, V domains shown) VH: QVQLQESGPGLVKPSGTLSLTCAVSGDSISNSKWWSWVRQPPGKGLEWIGEIFHSGSTNYNPSLKSRVTISVDKSQNQFSLKLNSVTAADTAVYYCARSASLYYYYGVDVWGQGTTVTVSS VL: EIVLTQSPGTLSLSPGERATLSCRASQSVSNNYLAWYQQKPGQAPRLLIYGTSRRDTGIPDRFSGSGSGTDFTLTISRLEPEDFAVYYCEQYGSLPRTFGQGTKVEIK | 40.6 |  |
| YANG-1205 (antibody, V domains shown) VH: QVQLVQSGAEVKKPGASVKVSCKASGYTFTSYCIHWVRQAPGQGLEWMGIINPSGGGTIFAQKFQGRVTMTRDTSTTTVYMELGSLRSDDTALYYCARGWSYDFWSGPDYWGQGTLVSVSS VL: DIVMTQTPLSLSVTPGQPASISCKSSQSLLHSDGKTYLYWYLQKPGQPPQLLIYEVSNRFSGVPDRFSGSGSGTDFTLKISRVGAEDVGIYYCMHSIKLPPTFGQGTKVEIK | 40.2 |  |
| YANG-1207 (antibody, V domains shown) VH: QVQLVESGGGVVQPGRSLRLSCAASGFTFSSYGMHWVRQAPGKGLEWVSVIWYDGTNKYYADSVKGRFTISRDNSKNTLYLQMNSLRAEDTAVYYCAREGVEFTGYFDYWGQGTLVTVSS VL: not shown | 39.9 |  |
| YANG-1204 (antibody, V domains shown) VH: QVQLVESGGGVVQPGRSLRLSCAVSGFTFSNYGIHWVRQAPGKGLVWVAVISYEGSIKYYGDSVKGRFTISRDNSKNTLYLQMNSLRAEDTAVYYCARGAVAGNDAFDIWGQGTMVTVSS VL: not shown | 44.8 |  |

Molecular target: SARS-CoV-2 spike protein bearing furin mutation and truncation in retention sequence, presented in t (SARS-CoV-2, UniProt P0DTC2 14-1273)
Test: cell-based or functional assay

| Binder | PV neutralisation IC50 [nM] | PV neutralization % (Ab 1 ug/mL) [%] |
| --- | --- | --- |
| YANG-2205 (antibody, V domains shown) VH: QIQLVQSGAEVKKPGASVKFSCKTSGYTFTSYYMVWVRQAPGQGLEWMGIIKPSGGNTIYAQKFQGRVTMTRDTSTNTVYMDLSSLRSEDTAVYYCARTGDRAFDVWGHGTMITVSS VL: QSVLTQPPSVSAAPGQKVTISCSGSSSNIGNNFVSWYQQFPGTAPKLLIYDNNKRPSGIPDRFSGSKSGTSATLGITGLQTGDEADYYCGTWDSSLGAGVFGGGTKLTVL | 3.35 | 47.5 |
| YANG-2206 (antibody, V domains shown) VH: QIQLVQSGAEVKKPGASVKLSCKTSGYTFTSYYMVWVRQAPGQGLEWMGIIKPSGGNTIFAQKFQGRVTMTRDTSTNTVYMDLNSLRSEDTAVYYCARTGDRAFDVWGHGTMVTVSS VL: QSVLTQPPSVSAAPGQKVTISCSGSSSNIGNNYVSWYQQFPGTAPKLLIYDNNKRPSGIPDRFSGSKSGTSATLGITGLQTGDEADYYCGTWDSSLGAGVFGGGTKVTVL | 3.96 | 42 |

Molecular target: full-length stabilised spike trimer protein of SARS-CoV-2 virus (in-house, soluble ECD with trimeris (SARS-CoV-2, UniProt P0DTC2 14-1208; P10104 458-484)
Test: not given

| Binder | HTRF deltaF [deltaF] |
| --- | --- |
| IMPI-002 (antibody, V domains shown) VH: EVQLVESGGGLIQPGGSLRLSCAASGVTVSSNYMSWVRQAPGKGLEGVSVIYSGGSTYYADSVKGRFTISRDNSKNTLYLQMNSLRAEDTAVYYCARDTVVYGMDVWGQGTTVTVSS VL: DIQLTQSPSFLSASVGDRVTITCWASQGISSYLAWYQQKPGKAPKLLIYAASTLQSGVPSRFSGSGSGTEFTLTISSLQPEDFATYYCQQLNSYPLTFGGGTKVEIK | 913 |
| IMPI-028 (antibody, V domains shown) VH: EVQLVESGGGLIQPGGSLRLSCAASGFTVSSNYMSWVRQAPGKGLEWVSVIYSGGSTYYADSVKGRFTISRDNSKNTLYLQMNSLRAEDTAVYYCARDYGDLYFDYWGQGTLVTVSS VL: EIVLTQSPGTLSLSPGERATLSCRASQSISSYLAWYQQKPGQAPRLLIYGASSRATGIPDKFSGSGSGTDFTLTISRLEPEDFAVYYCQQYGSSPRTFGQGTKVEIK | 480 |
| IMPI-052 (antibody, V domains shown) VH: EVQLVESGGGLIQPGGSLRLSCAASGVTVSSNYMNWVRQAPGKGLEGVSVIYSGGTTYYADSVKGRFTISRDNSKNTLYLQMNSLRAEDTAVYYCARDTVVYGMDVWGQGTTVTVSS VL: DIQLTQSPSFLSASVGDRVTITCWASQGISSYLAWYQQKPGKAPKLLIYTASTLQSGVPSRFSGSGSGTEFTLTISSLQPEDFATYYCQQLNSYPLTFGGGTKVEIK | 1130 |
| IMPI-056 (antibody, V domains shown) VH: EVQLVESGGGLIQPGGSLRLSCAASGLTVSSNYMNWVRQAPGKKLEWVSVIYSGGSTFYADSVRGRFTISRDNSKNTLFLQMNSLRAEDSAVYYCARDLGPYGVDVWGQGTTVTVSS VL: DIQLTQSPSFLSASVGDRVTITCWASQGISSYLAWYQQKPGKAPKLLIYAASTLQSGVPSRFSGSGSGTEFTLTISSLQPEDFATYYCQQLNSYPLTFGQGTRLEIK | 1630 |
| IMPI-067 (antibody, V domains shown) VH: QVQLVESGGGVVQPGTSLRLSCAASGFTFNSFGMHWVRQAPGKGLEWVAVISYDGSSKYYADSVKGRFTISRDNSKNTLYLQMNSLRAEDTAVYYCAKDEGDYDDYYYGMDVWGQGTTVTVSS VL: EIVLTQSPGSLSLSPGERATLSCRASQSLSSRYLAWYHQKPGQAPRLLIYGASSRATGIPDRFSGSGSGTDFTLTISGLEPEDFAVYYCQQYGNSITFGGGTKVEIK | 963 |
| IMPI-038 (antibody, V domains shown) VH: QVQLVESGGGVVQPGRSLRLSCAASGFTFSSYGMHWVRQAPGKGLEWVAVISYDGSDKYYADSVKGRFTISRDNSKNTLYLQMNSLRAEDTAVYYCAKTVAGYYYYYYGMDVWGQGTTVTVSS VL: DIQMTQSPSSVSASVGDRVTVTCRASQDISSWLAWFQQKPGKAPKFLIYDASNLENGVPSRFSGSGSGTDFTLTISSLQPEDFATYYCQQAKSFPWTFGQGTKVEIN | 1310 |
| IMPI-013 (antibody, V domains shown) VH: EVQLVESGGGLVQPGRSLRLSCAASGFTFDDYAMHWVRQTPGKGLEWVSGISWNSGSIGYADSVKGRFTISRDNAKNSLYLQMNSLRAEDTALYYCTKDLGLGIGFYYGLDVWGQGTTVTVSS VL: AIQMTQSPSSLSTSVGDRVTITCRASQGIRNDLGWYQLKPGKAPKLLIYDASTLQSGVPSRFSGSGSGTDFTLTISSLEPEDLATYYCLHHYTYPWTFGHGTKVELK | 1420 |
| IMPI-068 (antibody, V domains shown) VH: QVQLVESGGDVVQPGRSLRLSCAASGFTFSRYGMHWVRQAPGKGLEWVAVISYDGSDKYYADSVKGRFTISRDNSKNTLYLQMNSLRAEDTAVYYCAKQLPLYYYYYGMDVWGQGTTVTVSS VL: AIQLTQSPSSLSASVGDRVTITCRASQGISSALAWYQQKPGKAPNLLIYDASSLESGVPSRFSGSGSGTDFTLTISSLQPEDFATYYCQQFNIYPHTFGPGTKVDIK | 1600 |
| IMPI-004 (antibody, V domains shown) VH: QVQLVESGGGVVQPGRSLRLSCAASGFTFSSYGMHWVRQAPGKGLEWVAVIWYDGGNKYYADSVKGRFTISRDNSKNTLYLQMNSLRAEDTAVYYCARVNVLMGYGMDVWGQGTTVTVSS VL: EIVLTQSPGTLSLSPGDKATLSCRASQSIISSFLAWYQQKPGQAPRLLIYGASSRATGIPDRFSGSGSGTDFTLTISRLEPEDFAVYYCQQYGSSLTFGGGTKVEIK | 952 |
